From patent US6866851 come the findings set out here.

Common to all, as to assay: cell-based or functional assay
Assay [1] has as its target GFRα2-RET receptor complex (cells transfected with GFRα2 and expressing RET).
In assay [2] the target is GFRα3-RET receptor complex (cells transfected with GFRα3 and expressing RET).
For assay [3], the target named is GFRα1-RET receptor complex (cells transfected with GFRα1 and expressing RET).

Regarding “PNP-Ha/F2ac (persephin with regions Ha, F2a and F2c from neurturin) (ligand)”, the GFRα2-RET reporter activation relative to GDNF in assay [1] was 70 to 80 % of GDNF.

In assay [2], “PAP-Ha/F2ac (persephin with regions Ha, F2a and F2c from artemin) (ligand)” displayed a GFRα3-RET reporter activation relative to artemin (% of full length artemin) of 70 to 80.

Turning to “GPG-F2c (GDNF homologue-scanning mutant, region F2c replaced by persephin sequence) (ligand)”, the GFRα1-RET reporter activation relative to GDNF (% of full-length GDNF) in assay [3] was less than 60.

For the substance “PNP-F2ac (His-Flag-PNP-F2ac, from mouse sequences) (ligand)”, the GFRα2-RET reporter activation relative to GDNF in assay [1] was < 30 % of GDNF.

As for “GPG-Ha (GDNF homologue-scanning mutant, region Ha replaced by persephin sequence) (ligand)”, in assay [3], the GFRα1-RET reporter activation (FIG. 4, percentage of reporter activation by GDNF) was found to be 80%. The substance also displayed a GFRα2-RET reporter activation (FIG. 4, percentage of reporter activation by GDNF) in assay [1] of 27%.
